B1: rS-HPCDH1 (Xanthobacter versatilis) (protein)
chain: MLDAEVIAITGGAAGIGLAVAHAAIRAGARVALIDRDGACAQRAAAEFGAAAWGVGADVTDEAAITAAMAGAQRALGPLTGLVNNAGIAGFGSVHATEVETWSRIMAVNVTGTFLASKAALFGMLERGRGAIVNFGSVAGLVGIPTMAAYCAAKGAVVNLTRQMAADYSGRGIRVNVVCPGTVAGTDMGRQLLGTDCDPELEARRLAKYPMGRFGTPEDIAEAAVFLLSTKAAFVTGSVLAVDGGMTAI
B2: rR-HPCDH1 (Xanthobacter versatilis) (protein)
chain: SRVAIVTGASSGNGLAIATRFLARGDRVAALDLSAETLEETARTHWHAYADKVLRVRADVADEGDVNAAIAATMEQFGAIDVLVNNAGITGNSEAGVLHTTPVEQFDKVMAVNVRGIFLGCRAVLPHMLLQGAGVIVNIASVASLVAFPGRSAYTTSKGAVLQLTKSVAVDYAGSGIRCNAVCPGMIETPMTQWRLDQPELRDQVLARIPQKEIGTAAQVADAVMFLAGEDATYVNGAALVMDGAYTAI

Columns and labels:
Assay in all cases: purified protein
purified protein [1] = substrate: C[C@H](O)CSCCS(=O)(=O)O; settings: oxidation, 10 mM NAD+, pH 7.5, 30 °C
purified protein [2] = substrate: CC(=O)CSCCS(=O)(=O)O; settings: reduction, 0.17 mM NADH, pH 7.5, 30 °C
purified protein [3] = substrate: C[C@@H](O)CSCCS(=O)(=O)O; settings: oxidation, 10 mM NAD+, pH 7.5, 30 °C
purified protein [4] = substrate: C[C@H](O)CSCCS(=O)(=O)O; assay type: biochemical, Xanthobacter versatilis; settings: oxidation, 10 mM NAD+, pH 7.5, 30 °C
purified protein [5] = substrate: CC(=O)CSCCS(=O)(=O)O; assay type: biochemical, Xanthobacter versatilis; settings: reduction, 0.17 mM NADH, pH 7.5, 30 °C
purified protein [6] = substrate: C[C@@H](O)CSCCS(=O)(=O)O; assay type: biochemical, Xanthobacter versatilis; settings: oxidation, 10 mM NAD+, pH 7.5, 30 °C
purified protein [7] = substrate: O=S(=O)(O)CCSCCO; assay type: biochemical, Xanthobacter versatilis; settings: oxidation, 5 mM NAD+, pH 7.5, 30 °C

Row | Protein | Km (purified protein [1]) | kcat (purified protein [1]) | kcat/Km (purified protein [1]) | Km (purified protein [2]) | kcat (purified protein [2]) | kcat/Km (purified protein [2]) | Km (purified protein [3]) | kcat (purified protein [3]) | kcat/Km (purified protein [3]) | Km (purified protein [4]) | kcat (purified protein [4]) | kcat/Km (purified protein [4]) | Km (purified protein [5]) | Km (purified protein [6]) | kcat (purified protein [6]) | kcat/Km (purified protein [6]) | Km (purified protein [7])
1 | B1 | 220 ± 20 µM | 28 s⁻¹ | 130000 M⁻¹ s⁻¹ | 240 ± 10 µM | 20 s⁻¹ | 83000 M⁻¹ s⁻¹ | 5.2 ± 0.3 mM | 2.4 s⁻¹ | 460 M⁻¹ s⁻¹ | – | – | – | – | – | – | – | –
2 | B2 | – | – | – | – | – | – | – | – | – | 220 ± 70 µM | 0.12 ± 0.01 s⁻¹ | 530 M⁻¹ s⁻¹ | 68 ± 10 µM | 96 ± 7 µM | 48 ± 1 s⁻¹ | 500000 M⁻¹ s⁻¹ | 960 ± 100 µM

Source: paper PMC2858264
